Among the data in US20060292657A1, “Phex substrates and methods using same” (priority 2003, published 2006) are Km, kcat and kcat/Km values, retold here.

Holding throughout (assay): Kinetic parameters for hydrolysis of internally quenched fluorogenic peptides by secPHEX
Format in all cases: biochemical, human
Conditions in all cases: other: 37° C., 10 mM Bis-Tris buffer pH 5.5, 150 mM NaCl

Substrate in series [1]: CSCC[C@H](NC(=O)[C@H](CC(C)C)NC(=O)c1ccccc1N)C(=O)N[C@@H](CCSC)C(=O)N[C@@H](CC(=O)O)C(=O)N[C@@H](Cc1ccccc1)C(=O)N[C@@H](CCCNC(=N)N)C(=O)NCC(=O)N[C@@H](CCC(N)=O)C(=O)NCCNc1ccc([N+](=O)[O-])cc1[N+](=O)[O-]
As for the experimental part: (§1) The human recombinant secPHEX was obtained following the procedure previously described (17, WO 00/50580). Purified secPHEX concentration was determined using the Bradford method (DC protein assay kit; Bio-Rad, Mississauga, ON, Canada). Membrane-bound recombinant human PHEX was expressed in LLC-PK1 cells (17, (WO 00/50580)) and membranes were prepared essentially as described by Guo et al. (34). Briefly, transfected cells resuspended in lysis buffer (150 mM NaCl, 20 mM Tris.HCl, pH 7.6) were disrupted by sonication. Cell debris were removed by centrifugation at 300 g for 15 min at 4 °C. Membranes were collected by centrifugation at 30,000 g for 50 min and solubilized for 2h with 1% n-dodecyl-β-D-maltoside in lysis buffer. Insoluble material was pelleted by centrifugation at 10,000 g for 15 min and protein concentrations of the supernatant determined using the Bradford method described above. PHEX amounts were evaluated by immunoblotting as described previously (17). NEP expression and purification were performed as described previously (36).
(§2) The hydrolysis of the IQFPs, at 37° C., in 10 mM Bit-Tris buffer pH 5.5 (0.35 to 1.0 ml final volume) containing 150 mM NaCl, was continuously followed measuring the fluorescence at γem=420 nm and γex=320 nm in a Hitachi F-2000™ spectrofluorometer. The cuvefte containing the buffer and the substrate was placed in a thermostatically controlled cell compartment for 5 min before the addition of the enzyme and the increase in fluorescence with time was continuously recorded for 5-10 min. The enzyme concentration for initial rate determination was chosen at a level intended to hydrolyze less than 5% of the substrate present. The slope was converted into micromoles of substrate hydrolyzed per min based on a calibration curve obtained from complete hydrolysis of each peptide. The inner-filter effect was corrected using an empirical equation as previously described (43). The kinetic parameters Km and kcat were calculated by the non-linear regression data analysis Grafit program (42). The kcat/Km values were calculated as the ratio of these two determined parameters. The apparent second order rate constant kcat/Km (*kIt/Km) was determined under pseudo first-order conditions, where [S]<<Km. These determinations were performed in two different substrate concentrations and the errors were less than 5% for any obtained value.
(§3) To determine the position of cleavage in peptides of the IQFPs combinatorial libraries, the products resulting from hydrolysis by secPHEX were submitted to N-terminal amino acid sequencing in a PPSQ-23protein sequencer (Shimadzu Tokyo, Japan). The scissile bonds in the IQFPs secPHEX substrates derived from PTHrP107-139, FGF-23and MEPE were determined by amino acid sequencing and by MALDI-TOF™ mass spectrometry (TofSpec-E™, Micromass, Manchester, U.K.) after isolation of the fragments resulting from the hydrolysis by secPHEX by analytical HPLC.
(§4) The assays were performed at 37° C., in 10 mM Bis-Tris buffer pH 5.5, containing 150 mM NaCl. Measurements were made as described under the heading “Experimental Procedures” above. Cleavage sites are indicated as arrows (↓). The standard deviations of the kinetic constants were less than 5%.
(§5) The assays were performed at 37° C., in 10 mM Bis-Tris buffer pH 5.5, containing 150 mM NaCl. Measurements were made as described under the heading “Experimental Procedures” above. Cleavage sites are indicated by arrows (↓). The standard deviations of the kinetic constants were less than 5%.
(§6) The assays were. performed at 37° C., in 10 mM Bis-Tris buffer pH 5.5, containing 150 mM NaCl. Measurements were made as described under the heading “Experimental Procedures” above. Cleavage sites are indicated by arrows (↓). The standard deviations of the kinetic constants were less than 5%.
(§7) The assays were performed at 37° C., in 10 mM Bis-Tris buffer pH 5.5, containing 150 mM NaCl. Measurements were made as described under “Experimental Procedures”. […]

Substrate in series [2]: C[C@H](NC(=O)[C@H](CO)NC(=O)[C@H](CCC(N)=O)NC(=O)[C@@H](NC(=O)[C@H](Cc1c[nH]cn1)NC(=O)[C@H](CCCNC(=N)N)NC(=O)[C@H](CCCNC(=N)N)NC(=O)c1ccccc1N)[C@@H](C)O)C(=O)N[C@@H](CCC(=O)O)C(=O)N[C@@H](CC(=O)O)C(=O)N[C@@H](CC(=O)O)C(=O)N[C@@H](CO)C(=O)N[C@@H](CCC(=O)O)C(=O)N[C@@H](CCCNC(=N)N)C(=O)N[C@@H](CCC(N)=O)C(=O)NCCNc1ccc([N+](=O)[O-])cc1[N+](=O)[O-]
As for the experimental part: as §1, §2, §3, §4, §5, §6, §7

Substrate in series [3]: N=C(N)NCCC[C@H](NC(=O)c1ccccc1N)C(=O)N[C@@H](CCCNC(=N)N)C(=O)N[C@@H](CC(=O)O)C(=O)N[C@@H](CC(=O)O)C(=O)N[C@@H](CO)C(=O)N[C@@H](CO)C(=O)N[C@@H](CCC(=O)O)C(=O)N[C@@H](CCC(N)=O)C(=O)NCCNc1ccc([N+](=O)[O-])cc1[N+](=O)[O-]
As for the experimental part: as §1, §2, §3, §4, §5, §6, §7

Substrate in series [4]: NC(=O)CC[C@H](NC(=O)[C@H](CO)NC(=O)CNC(=O)[C@H](CO)NC(=O)[C@H](CC(=O)O)NC(=O)[C@H](CO)NC(=O)[C@H](CO)NC(=O)c1ccccc1N)C(=O)NCCNc1ccc([N+](=O)[O-])cc1[N+](=O)[O-]
As for the experimental part:
as §1, §2, §3, §4, §5, §6, §7

Substrate in series [5]: NC(=O)[C@H](CCCCNc1ccc([N+](=O)[O-])cc1[N+](=O)[O-])NC(=O)[C@H](Cc1ccc(O)cc1)NC(=O)[C@H](CC(=O)O)NC(=O)[C@H](CO)NC(=O)[C@H](Cc1ccccc1)NC(=O)CNC(=O)c1ccccc1N
As for the experimental part:
as §1, §2, §3, §4, §5, §6, §7

B1: human recombinant secPHEX (Homo sapiens) (protein)
chain: SLQAKQEYCLKPECIEAAAAILSKVNLSVDPCDNFFRFACDGWISNNPIPEDMPSYGVYPWLRHNVDLKLKELLEKSISRRRDTEAIQKAKILYSSCMNEKAIEKADAKPLLHILRHSPFRWPVLESNIGPEGVWSERKFSLLQTLATFRGQYSNSVFIRLYVSPDDKASNEHILKLDQATLSLAVREDYLDNSTEAKSYRDALYKFMVDTAVLLGANSSRAEHDMKSVLRLEIKIAEIMIPHENRTSEAMYNKMNISELSAMIPQFDWLGYIKKVIDTRLYPHLKDISPSENVVVRVPQYFKDLFRILGSERKKTIANYLVWRMVYSRIPNLSRRFQYRWLEFSRVIQGTTTLLPQWDKCVNFIESALPYVVGKMFVDVYFQEDKKEMMEELVEGVRWAFIDMLEKENEWMDAGTKRKAKEKARAVLAKVGYPEFIMNDTHVNEDLKAIKFSEADYFGNVLQTRKYLAQSDFFWLRKAVPKTEWFTNPTTVNAFYSASTNQIRFPAGELQKPFFWGTEYPRSLSYGAIGVIVGHEFTHGFDNNGRKYDKNGNLDPWWSTESEEKFKEKTKCMINQYSNYYWKKAGLNVKGKRTLGENIADNGGLREAFRAYRKWINDRRQGLEEPLLPGITFTNNQLFFLSYAHVRCNSYRPEAAREQVQIGAHSPPQFRVNGAISNFEEFQKAFNCPPNSTMNRGMDSCRLW
notes: pure soluble form of PHEX (secPHEX); made in house
One may read the Km as the substrate concentration at which the rate is half of its maximum. As usually defined, the kcat is the number of substrate molecules converted per active site and unit of time at saturation. As a reminder, the kcat/Km is the turnover number divided by the Michaelis constant. As to B1, the Michaelis-Menten constant (Km) amounted to 17.0 µM in series [1]; 1.7 µM in series [2]; 5.3 µM in series [3]; 31.6 µM in series [4]; 53.2 µM in series [5]. Besides, the kcat in series [1] is 0.8 s⁻¹; in series [2] it was 0.15 s⁻¹; in series [3], 0.5 s⁻¹; in series [4] it was 0.2 s⁻¹; in series [5], 1.3 s⁻¹. Further, the kcat/Km in series [1] turned out to be 45000 M⁻¹ s⁻¹; in series [2], 88200 M⁻¹ s⁻¹; in series [3], 94300 M⁻¹ s⁻¹; in series [4] it was 7100 M⁻¹ s⁻¹; in series [5], 24400 M⁻¹ s⁻¹.
